The data set is described as follows: soluble on expression in E. coli; label from the status in PepcDB or PDB records.
Take “MGSDKIHHHHHHMRTVYAIVVNYNNFDDTAECIDSLLNQTYPCRVVVVDNGSEREVIEKLRRKYPQVEMLELGENRGYAGGCNAGIRAVIDKADYVLISNNDVVFERDAVERMVSEMEEDETIAACQPVVKYYGDERIWSAGTRIFLGYPVLHLKNKMVEVEISFDSPFGLVGCAMLIRSSALKDVGFFDEELFMMHEETEWCIRARKKGYRLAVCKAVVRHKVSASLGLFSPHYLYYTARNWLIVARRAGKAMFFYALITEPLRVLYYLVRLKRKGDIIQYLKGVVHGILSRKGRRC”: the “soluble on expression in E. coli” value is on record as “not soluble”. With “GPGSMNRAESSANALGEEFVKNMNTALDIVESLVAKGEAQFAILASAKSTFCVGADIDQMYTVTDPAVAVQVPTVGHKLFNRIEQEKFPIVAAINGLALGGGFEMSLACHQRLMASTAKVGFPECLLGLLPGGGGTVRTQRLCGLTKTVQWIMTSKQIKPQEAKSAGACDVIIPADDRWNGEHRFYEGVRKWAGQYLSNKPARLSKRKNISLMDQVLENTTFGRRKVADETIKMLNKKTRGKYIAQYKALECIMYSATHSNQQGFDKECRGFAELLCSPEAKNQMSLYFLQEGMKKSADKTGVPKDKVMPVNRVGVIGAGVMGSGIVHYFAKNNIPVAVKDLTEESVKQGITNVRAEFERAVRRKRMVTAELDGKMALVTGGTTNEVFRDADVIVEAAVEVMDIKKKVIQQLEKDGILHSKSLFATNTSSLSLTEMQTVAKCPHNIVGMHFFNPVSKMPLVEVIKGKSTSTEAAAAIFNLALKTGKIPIIVNDGPGFLVNRILGVYMAEAGRLAVDERCHPACVDEAILAFGMPMGPFRLLDEVGLDVACHVGPVLANGLKSDRFSVSATISQMVADGYLGRKNRKGFYTYAAEGKEAGLNSAVLQKYLGEELSASISETEIVDRCVLLMVNEATRILDEGIAMSPEDVDTGMVWGTGFPPFRGGLLQYADHRGIANVVAALEQLQRKTKRDYFAPTETLKKMAIEGKRFFPTRPYVPYQERHGYPKVTY”, the “soluble on expression in E. coli” value is on record as “not soluble”. In the case of “MAEPLQPDPGAAEDAAAQAVETPGWKAPEDAGPQPGSYEIRHYGPAKWVSTSVESMDWDSAIQTGFTKLNSYIQGKNEKEMKIKMTAPVTSYVEPGSGPFSESTITISLYIPSEQQFDPPRPLESDVFIEDRAEMTVFVRSFDGFSSAQKNQEQLLTLASILREDGKVFDEKVYYTAGYNSPVKLLNRNNEVWLIQKNEPTKENE” it was “soluble”; in that of “HTDPGDVVIEELFNRIPETSVWNENERVLSNANHLVSTALWRNEQSFRVESELGERPRTLVRGPVLRDDGSYICLEATDQETGEPLEVHVPYFTERPPSNAIKQLSEQVLRLRLLRGIKNQRQAKAYLRFIFPIDLVKDPKKRKMIRVRLDERDMWVLSRFFLYPRMQSNLHILGDVLLSHSSTHKSLVHHARLQLTLQLIRLAASLQHYGLVHADFQVRNILLDQRGGVFLTGFEHLVRDGASAVSPIGRGFAPPETTAERMLPYRQHHPTLMTFPFDTWTLGLAIYWIWCADLPNTEDAELGGIEWIYRRCKNIPQPVRALLEGFLRYSKEDRLLPLQAMETSEYEQLRTELSAVLPLYQTDGEPA”, “soluble”. In the case of “SGRVQLFEISLSHGRVVYSPGEPLAGTVRVRLGAPLPFRAIRVTCIGSCGVSNKANDTAWVVEEGYFNSSLSLADKGSLPAGEHSFPFQFLLPATAPTSFEGPFGKIVHQVRAAIHTPRFSKDHKCSLVFYILSPLNLNSIPDIEQPNVASATKKFSYKLVKTGSVVLTASTDLRGYVVGQALQLHADVENQSGKDTSPVVASLLQKVSYKAKRWIHDVRTIAEVEGAGVKAWRRAQWHEQILVPALPQSALPGCSLIHIDYYLQVSLKAPEATVTLPVFIGNIAVNHAPVSPRPGLGLPPGAPPLVVPSAPPQEEAEAEAAAGGPHFLDPVFLSTKSHSQRQPLLATLSSVPGAPEPCPQDGSPASHPLHPPLCISTGATVPYFAEGSGGPVPTTSTLILPPEYSSWGYPYEAPPSYEQSCGGVEPSLTPES” it was “soluble”; in that of “MAHHHHHHMIAATQVPGLNEISRQAASGSPFPQVLPPRYPANKVSTAGLQSSNHGAAQLVHDVNNVAAEIHHPLITAADYSDRRQLLSHITVLSGQLQRAQLLLRNTPSCVVSDADIARFDPLIAQAEVERLDSALAQLSLLHEMERARSGSLEAEQQQLREERNQLVARVDTLESRSVALETENVQLRSALEVAQQELQVLRVGESALGNKLHAIEQLQRDGGRFDGVNVVIAPPRAVCSTAAKELQLQENIQRLSLLLDMMMDPMYIAFDAGVVWITETEHHRAGGQVCGAALSNAPHDSEELTTTVGGNSPLGNASDATLPQDVVANPPHVVASEVDISLLQQQQQELCRQLDAVRESCRVAERNQERLQDLLLEEQRRTEAMAQEHCKQLQCVHDRVVHERRQVVESLVAEVEEKMRNAFRDGRLYQKQLDERLIHRRSSSTFQSRSGHSSARSTPFASRHKAFGGNGTCKGDGDANSSRSARSPILGG”, “not soluble”; in that of “QLIAATGCPTGIAHTYMAQEALEQAAKRKGITIKVETHGQIGIENELTPAEIQGAEAVIIAADKDVQAERFAGKRIIDVPVSVGIKEADRLIEEALAGKGSIA”, “not soluble”. In the case of “MLPYMAYRYVKNKREKNQREMDSDLDSMVRSIVPDKTVICVPNVAAKLGEDSKEYIPGTLSIVEKSSGVFIEWKPSEDAETSWVMTSDDGNTEMVHARSPEEKQKCGARVAFSMDVNDLSSFRNDEPKRGSGGFPSIRLICRDGSSQVPLFFKNTTTAEFLDRLQGYITLRRSHRDSHLVIVVDQKSEALAKSVSMLDENGDILSRFMQNPYMTAMTGFSKITSFVQDQVIPSVLNDTDAVTQEEKIRLMRELRLAEEQMRVHSDAAGEFEVVTQLELPPRPEIYRELPVSKDLWNSFKLSNGSYDPMKLHHLKMNVFRGGLNAELRKEAWKCLLGYRQWHESDTDFQTRRAELAKQYENMKKQWMSVTEDQEKRFTKFVKRKSLVGEEIEND” it was “not soluble”; in that of “MGSDKIHHHHHHMIAVLRINHRPFRDKRITTHVALTARAFGASSILVDEKDETLEQTINKVVENFGGNFFIKSGVDWKREFRNFKGIRVHLTMYGRPLEDVVKEIRESKKDVMILVGSEKVPFEAYEIADYNVSVTNQPISEVSALAIFLDRFYDGEELNWRFTGKINVYPSERGKKVKIIPDEQGCLDLLYKYGASDYLINHVKSVKELAVAIAKKTNADINLVTAGALLHDIGRTQVQGITHAVVGADILRREGIDDRVVSIVEKHIGAGIQSEEAVKLGLPPDNYVPETIEEMIVAHADNLFAGDKRLKLQQVVDNYRKKGLEDAAERIAKLHKFLSTVIGQDMDEI”, “not soluble”.

As for “MKKDIILSGVGGQGILSIATVIGKAALKEGLYMKQAEVHGMSQRGGDVQSNLRISDKPIASDLIPSGKCDLIISLEPMEGLRYLPYLSPEGWLVTNETPFVNIPNYPEEDKVMAEINKLPHKIVLNVDKVAKEVGSARVANIVLLGATIPFLGIDYEKVQDSIREIFLRKGEAIVEMNLKALAAGKEIAEKLMQ”, the “soluble on expression in E. coli” value was “not soluble”.

Consider “EALYVAGYLALYSKDEGELNITPEIVRSALPPTSKIPINIDHRKDCVVGEVIAIIEDIRGPFFLGIVRCPQLHAVLFEAAHSNFFGNRDSVLSPLERALYLVTNYLPSVSLSSKRLSPNEIPDGNFFTHVALCVVGRRVGTVVNYDCTPESSIEPFRVLSMESKARLLSLVKDYAGLNKVWKVSEDKLAKVLLSTAVNNMLLRDRWDVVAKRRREAGIMGH”, for which the “soluble on expression in E. coli” value is on record as “soluble”. In the case of “MKLSATIAIILLNWNGWRDTVDCVESCRKLDYPNFRIVIVDNGSTDGSEAILRERFPDVELIQTGANLGFAGGNNAGIRHALVRGADYVWLLNNDTVVEPGALGALVRVAESDPRVGMVGSKIVYFDDPWLLWFAGAVIDPERPHRPFHRGLHERDTGQYDRVAETGYVTGCSLLARREMMAEVGMLDDDLFLYFEDADWSARAARAGWKLLYVPDSVVRHKESVSSGGAASPRLVYYTARNRLYFVRRNFPAKLAAALCYDLFEHVLVNVKKGRFPLAVAGCRGIRDFLAGKIGPMPLEHHHHHH” it was “soluble”.

The values above are taken from the DeepSol protein solubility set.
